Test results: patent US10975365B2, “Di-enzymatic chimeric endolysin” (Government of the United States of America, as represented …, priority 2018, dated 2021)

Assays:
[1] = tested on: five strains of stationary phase S. pneumoniae; assay: Bactericidal activity of ClyX-3 on pneumococcal strains; assay type: cell-based, Streptococcus pneumoniae; conditions: 5 μg/ml; 5 min
Protocol: (a) Bactericidal effects of ClyX-3 against five strains of stationary phase S. pneumoniae. 5 μg/ml of enzymes were mixed with 10^6 bacterial cultures for 5 min. Log killing was determined through the comparisons of PBS treatment and enzymes treatment. (b) Bactericidal effects of ClyX-4 against stationary phase streptococci. 50 μg/ml of enzymes were mixed with 10^6 bacterial culture for 1 h. Log killing was determined through the comparisons of PBS treatment and enzymes treatment;
(§1) With regard to bactericidal assay, bacterial cells were diluted to 2× rich media to generate a final concentration of 5.0×10^6 CFU/ml. 100 μl of the diluted bacterial culture was added into a 96-well titration plate in triplicate and mixed with 100 μl of sterile-filtered enzymes. Plates were sealed and incubated at 37° C. for 5-60 min. After the incubation, bacterial cells were serially diluted in 10-fold increments into sterile PBS and plated on THY/TSB agar. Log killing was calculated as follows: −log[(CFU under enzyme treatment)/(CFU under PBS treatment)].
With regard to applying the design rationale to add a C′ terminal EAD such that two EADs are disposed at each side of the CBD, the process was used to engineer endolysins for increased activity. […]

S. pneumoniae NS26 = assay: Mouse systemic infection model, survival; assay type: in vivo, female BALB/c mice
Protocol: (§2) (a) Different concentrations of ClyX-1 and Cpl-1 were mixed with 10^6 overnight S. pneumoniae D39 culture for 5 min. The cells were then serial diluted and plated on the THY plates. Log killing was determined through the comparisons of PBS treatment and the enzymes treatment. (b) Female BALB/c mice were injected intraperitoneally with pneumococcus strain S. pneumoniae NS26 at a single dose at 2.95×10^7 colony forming units (CFU) per mouse. One hour after the infection, mice were intraperitoneally received a single dose of different treatments in different amount per mouse. The lines represent the percentage survival of mice for 10 days. The data was plotted as Kaplan-Meier survival curves and analyzed via the Log-rank (Mantel-Cox) test (*P<0.001; **P<0.0001);
With regard to in vivo mouse infection models, mouse infection experiments were carried out in an ABSL-2 lab. In the mouse systemic infection model, female BALB/c mice (6-8 weeks old) were injected intraperitoneally with S. pneumoniae NS26 at a single dose of 2.95×10^7 CFU/mouse and divided randomly into multiple groups. Bacterial burden in blood and organs in mice 1 h post-infected were confirmed by plating on THY agar as described previously. One hour post-infection, these groups intraperitoneally received a single dose of 20, 40, or 80 μg/mouse of […] (n=10); 20, 40, or 80 μg/mouse of Cpl-1 (n=10); 100 μg/mouse of penicillin G (n=10); or an equal volume of PBS buffer (n=10). The survival data for all groups were recorded for 10 days.
To validate the in vitro bactericidal activity of ClyX-1, we applied a mouse systemic infection model to test the in vivo efficacy of the enzyme. Mice were challenged to a 2-days lethal-dose of 2.95×10^7 CFU. One hour after infection, the mice were intraperitoneally injected a single dose containing different amount of either ClyX-1 or Cpl-1 ranging from 20 μg-80 μg. The antibiotics control was 100 μg/mouse of penicillin G, and the negative control was as PBS, pH7.4 buffer. The mice were then observed and recorded for the survival data. All the mice treated with PBS buffer died within the first 2 days.

S. pneumoniae D39 = assay: Bactericidal assay on D39, ClyX-1 compared with Cpl-1 and PlyCA; assay type: cell-based, Streptococcus pneumoniae
Protocol: as §2, §1
Bactericidal assays were repeated using the three lysins at different concentrations (0.5 μg/ml to 50 μg/ml) on a different strain, D39 (FIG. 10a).

[2] = tested on: eight serotypes of pneumococci; assay: MIC test on pneumococcal strains; assay type: cell-based, Streptococcus pneumoniae
Protocol: The MICs of enzymes and antibiotics were determined in a 96-well titration plate in triplicate. Briefly, the overnight pneumococcal culture was diluted with 2×THY to obtain a final concentration of 1×10^7 CFU/ml, and other bacterial species were diluted with 2-folded medium to 1×10^5 CFU/ml. 100 μl of the diluted bacterial culture was subjected into each well, mixing with the serial 2-fold diluted 100 μl of enzymes/antibiotics. PBS buffer was used as a negative control. The plates were sealed via parafilm and statically incubated at 37° C. incubator for 24 h. The MIC was defined as the lowest concentration of treatment that inhibited visible growth of the bacterium.
To further evaluate the activity of ClyX-1, MIC tests were performed against eight serotypes of pneumococci including penicillin-resistant strains and capsule-free mutant with information shown in FIG. 13. Penicillin and levofloxacin were tested as standards to benchmark the antimicrobial activity. All of the strains were sensitive to levofloxacin (MIC<=2). Only the two penicillin-resistant strains indicated MIC larger than 2 μg/ml (resistance). […] The MICs of ClyX-1 were lower than that of Cpl-1 and even levofloxacin, ranging from 0.13 μg/ml to 0.5 μg/ml.

B1: Cpl-1: parental endolysin derived from the streptococcal Cp-1 phage (protein, UniProt P15057 1-339, looked up)
Lysozyme: MVKKNDLFVDVSSHNGYDITGILEQMGTTNTIIKISESTTYLNPCLSAQVEQSNPIGFYHFARFGGDVAEAEREAQFFLDNVPMQVKYLVLDYEDDPSGDAQANTNACLRFMQMIADAGYKPIYYSYKPFTHDNVDYQQILAQFPNSLWIAGYGLNDGTANFEYFPSMDGIRWWQYSSNPFDKNIVLLDDEEDDKPKTAGTWKQDSKGWWFRRNNGSFPYNKWEKIGGVWYYFDSKGYCLTSEWLKDNEKWYYLKDNGAMATGWVLVGSEWYYMDDSGAMVTGWVKYKNNWYYMTNERGNMVSNEFIKSGKGWYFMNTNGELADNPSFTKEPDGLITVA
**Q.** Which results are given for B1?
**A.** log reduction of tested pneumococcal strains [1]: ~2 logs; time within which the mice had died (S. pneumoniae NS26; 20 μg single i.p. dose 1 h after infection): ≤ 5 days; mice rescued (survival) (S. pneumoniae NS26; 80 μg single i.p. dose 1 h after infection, 10 days): 20%; log reduction (S. pneumoniae D39; 0.5 μg/ml, 5 min): < 1 log; concentration at which the bacteria culture was sterilized (S. pneumoniae D39; within 5 min, tested 0.5 to 50 μg/ml): 50 µg/mL

B2: ClyX-3: the full-length Cpl-1 with an additional C′ terminal PlyC CHAP; Seq. ID No. 21 (protein)
chain: MVKKNDLFVDVSSHNGYDITGILEQMGTTNTIIKISESTTYLNPCLSAQVEQSNPIGFYHFARFGGDVAEAEREAQFFLDNVPMQVKYLVLDYEDDPSGDAQANTNACLRFMQMIADAGYKPIYYSYKPFTHDNVDYQQILAQFPNSLWIAGYGLNDGTANFEYFPSMDGIRWWQYSSNPFDKNIVLLDDEEDDKPKTAGTWKQDSKGWWFRRNNGSFPYNKWEKIGGVWYYFDSKGYCLTSEWLKDNEKWYYLKDNGAMATGWVLVGSEWYYMDDSGAMVTGWVKYKNNWYYMTNERGNMVSNEFIKSGKGWYFMNTNGELADNPSFTKEPDGLITVAGSDRVAANLANAQAQVGKYIGDGQCYAWVGWWSARVCGYSISYSTGDPMLPLIGDGMNAHSIHLGWDWSIANTGIVNYPVGTVGRKEDLRVGAIWCATAFSGAPFYTGQYGHTGIIESWSDTTVTVLEQNILGSPVIRSTYDLNTFLSTLTGLITFK
modifications: Bacteriophage
notes: the full-length Cpl-1 with an additional C′ terminal PlyC CHAP; ID No. 21
**Q.** How did the “log reduction of tested pneumococcal strains” value [1] turn out when B2 was run?
**A.** The value was ~4 logs.

**Q.** And the “activity by MIC compared with parental endolysin and ClyX-1” value [2]?
**A.** Its value is “better than parental endolysins”.
